Patent publication US20190375786A1, “STABLE PEPTIDES AND METHODS OF USE THEREOF” (Fred Hutchinson Cancer Research Center, priority 2016, published 2019)

What was measured:
[1] = Resistance to elevated temperature, HPLC; assay type: physicochemical; conditions: HPLC peak vs untreated peptide; for Resistance to Temperature (75° C.): 75° C. for one hour; for Resistance to Temperature (100° C.): 100° C. for one hour
Experimental: (§1) Peptides were first suspended in 500 μl of ddH2O to a stock concentration of 2 mg/ml. Reactions were prepared by adding 12.5 μg of peptide from the stock solution to a 10 mM solution of DTT in PBS and allowed to incubate at room temperature for 30 minutes. Other reactions were prepared with 12.5 μg peptide and 500 U/ml trypsin in 25 mM Tris/75 mM NaCl buffer (pH 7.0) and incubated for 30 minutes at 37.5° C. These reactions were then quenched with 5 μg of soybean trypsin inhibitor (I) and, in some cases, 10 mM dithiothreitol (DTT). Reversed phase HPLC (RP-HPLC) was run on samples using an Agilent 1260 HPLC equipped with a C-18 Poroshell 120B column. Sample were analyzed by a gradient method with a mobile phase of Solvent A (water with 0.1% TFA) and Solvent B (acetonitrile with 0.1% TFA). Solvent B was ramped up from 5%-45% of the mobile phase over a period of 10 minutes. For testing pepsin digestion resistance, reactions were prepared with 12.5 μg peptide with or without 500 U/ml pepsin in simulated gastric fluid (SGF; pH 1.05; […] sodium chloride in 0.7% (v/v) hydrochloric acid) and were incubated for 30 minutes at 37.5° C. For testing temperature resistance, peptides were incubated at 70° C., 75° C., or 100° C. for one hour in 0.5 mM PBS, pelleted, and then the supernatant was analyzed by HPLC.
This example illustrates peptide stability at high temperatures. Peptides were first suspended in 500 μl of ddH2O to a stock concentration of 2 mg/ml. Reactions were prepared by adding 6.25 μl of peptide from the stock solution with 95 μl ddH2O and incubated at room temperature, 70° C., or 100° C. for one hour in a Thermocycler. RP-HPLC was then run on samples using an Agilent 1260 HPLC equipped with a C-18 Poroshell 120B column. Sample were analyzed by a gradient method with a mobile phase of Solvent A (water with 0.1% TFA) and Solvent B (acetonitrile with 0.1% TFA). Solvent B was ramped up from 5%-45% of the mobile phase over a period of 10 minutes.

[2] = Resistance to reduction by DTT, RP-HPLC; assay type: physicochemical; conditions: 10 mM DTT in PBS, room temperature, 30 minutes; HPLC peak vs untreated peptide
Experimental: Peptides were first suspended in 500 ul of ddH2O to a stock concentration of 2 mg/ml. Reactions were prepared by adding 12.5 ug of peptide from the stock solution to a 10 mM solution of DTT in PBS and allowed to incubate at room temperature for 30 minutes. Other reactions were prepared with 12.5 μg peptide with or without 500 U/ml pepsin in simulated gastric fluid (SGF; pH 1.05; […] sodium chloride in 0.7% (v/v) hydrochloric acid) and were incubated for 30 minutes at 37.5° C. Some reactions were quenched with a final concentration of 100 mM Tris base and 10 mM dithiothreitol (DTT). Some reactions were performed in all of the above components, including simulated gastric fluid, pepsin, Tris, and DTT (referred to as SPTD). Reversed phase HPLC (RP-HPLC) was run on samples using an Agilent 1260 HPLC equipped with a C-18 Poroshell 120B column. Sample were analyzed by a gradient method with a mobile phase of Solvent A (water with 0.1% TFA) and Solvent B (acetonitrile with 0.1% TFA). Solvent B was ramped up from 5%-45% of the mobile phase over a period of 10 minutes. Peptides were detected at an absorbance of 214 nm and 280 nm.
as §1
This example illustrates peptide stability in biological conditions including in the presence of reducing agents, proteases, oxidative conditions, acidic conditions, and simulated gastric fluids. […] Various peptides were suspended in 500 μl of ddH2O at a stock concentration of 2 mg/ml. This was then diluted in accord with the reaction conditions to prevent adverse buffering effects. Reactions were prepared with 12.5 μg peptide dissolved in solution and, in some samples, additionally suspended in a 10 mM solution of DTT, simulated gastric fluid (pH 1.05; […] sodium chloride in 0.7% (v/v) hydrochloric acid), 500 U pepsin (5000 U/ml pepsin), 50 U trypsin (500 U/ml trypsin) with 1 mg/ml inhibitor in PBS, or a combination of any of these conditions. All protease reactions were incubated for 30 min at room temperature and then quenched. Pepsin reactions were quenched by adding Tris base to a final concentration of 0.075 M. Trypsin reactions were quenched by adding excess soybean trypsin inhibitor. RP-HPLC was then run on samples using an Agilent 1260 HPLC equipped with a C-18 Poroshell 120B column. Sample were analyzed by a gradient method with a mobile phase of Solvent A (water with 0.1% TFA) and Solvent B (acetonitrile with 0.1% TFA). Solvent B was ramped up from 5%-45% of the mobile phase over a period of 10 minutes.
FIG. 18 illustrates high performance liquid chromatograph (HPLC) traces of peptides in non-reducing (NR) conditions (solid trace) or in 10 mM DTT reducing (R) conditions (dashed trace). […]

[3] = target: trypsin (Sus scrofa, UniProt P00761); experiment: Trypsin digestion resistance of soluble peptide, RP-HPLC; assay type: in vitro ADME, porcine; set-up: purchased Sigma Aldrich 6567; conditions: 500 U/ml trypsin, 30 minutes at 37.5° C.; HPLC peak vs untreated peptide
In short: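 Read-out was RP-HPLC (C-18, water/acetonitrile with 0.1% TFA, 5-45% over 10 min) of peptide left after trypsin treatment. Digest: 12.5 μg peptide, 500 U/ml porcine trypsin, PBS, 37.5° C for 30 min, stopped by soybean trypsin inhibitor; samples then reduced (10 mM DTT) or left non-reduced.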

[4] = target: pepsin (Sus scrofa, UniProt P00791); experiment: Pepsin digestion resistance in simulated gastric fluid, RP-HPLC; assay type: in vitro ADME, porcine; set-up: purchased Sigma Aldrich P7012; conditions: 500 U/ml pepsin in SGF pH 1.05, 30 minutes at 37.5° C.; HPLC peak vs untreated peptide
In short: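 Digestion resistance read by reversed-phase HPLC (C-18, 0.1% TFA, 5–45% acetonitrile over 10 min; 214/280 nm) after 12.5 μg peptide spent 30 min at 37.5 °C in pH 1.05 simulated gastric fluid, with or without 500 U/ml pepsin. Some samples quenched with Tris base and DTT.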

Sequence of pepsin (P00791 60-385): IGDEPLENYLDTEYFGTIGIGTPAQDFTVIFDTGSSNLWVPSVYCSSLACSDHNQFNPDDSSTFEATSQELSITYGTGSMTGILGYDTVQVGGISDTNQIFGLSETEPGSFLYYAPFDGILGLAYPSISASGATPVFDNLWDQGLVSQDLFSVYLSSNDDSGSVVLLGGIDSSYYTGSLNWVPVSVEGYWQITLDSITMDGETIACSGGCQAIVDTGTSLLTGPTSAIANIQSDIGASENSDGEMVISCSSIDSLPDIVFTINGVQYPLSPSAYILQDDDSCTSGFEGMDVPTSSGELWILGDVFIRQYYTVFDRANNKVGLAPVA
Sequence of trypsin (P00761 9-231): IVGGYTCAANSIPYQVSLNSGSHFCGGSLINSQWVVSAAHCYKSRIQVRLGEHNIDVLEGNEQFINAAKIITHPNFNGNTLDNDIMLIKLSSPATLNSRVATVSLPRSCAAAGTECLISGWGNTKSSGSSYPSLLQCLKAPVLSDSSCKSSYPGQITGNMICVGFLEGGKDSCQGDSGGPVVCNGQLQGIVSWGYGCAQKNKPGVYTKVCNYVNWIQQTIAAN

| Substance | Resistance to Temperature (75° C.) [1] | Resistance to Temperature (100° C.) [1] | Resistance to DTT Reduction (10 mM) [2] | Resistance to Trypsin (500 U/ml) [3] | Resistance to Pepsin (500 U/ml) [4] |
| --- | --- | --- | --- | --- | --- |
| 34 (GSGCFGYKCDYYKGCCSGYVCSPTWKWCVRPGPGR) [compound 34] | High (A peptide classified as high indicates that the majority (at least 75%) of the HPLC peak of the treated peptide is still present as compared to the HPLC peak of the untreated peptide) | Low (A peptide classified as low indicates that the majority (over 75%) of the HPLC peak of the treated peptide disappeared as compared to the HPLC peak of the untreated peptide) | Low (A peptide classified as low indicates that the majority (over 75%) of the HPLC peak of the treated peptide disappeared as compared to the HPLC peak of the untreated peptide) | Low (A peptide classified as low indicates that the majority (over 75%) of the HPLC peak of the treated peptide disappeared as compared to the HPLC peak of the untreated peptide) | Low (A peptide classified as low indicates that the majority (over 75%) of the HPLC peak of the treated peptide disappeared as compared to the HPLC peak of the untreated peptide) |
| 11 (GSNCAGYMRECKEKLCCSGYVCSSRWKWCVLPAPWRR) [compound 11] | High (A peptide classified as high indicates that the majority (at least 75%) of the HPLC peak of the treated peptide is still present as compared to the HPLC peak of the untreated peptide) | Low (A peptide classified as low indicates that the majority (over 75%) of the HPLC peak of the treated peptide disappeared as compared to the HPLC peak of the untreated peptide) | Low (A peptide classified as low indicates that the majority (over 75%) of the HPLC peak of the treated peptide disappeared as compared to the HPLC peak of the untreated peptide) | High (A peptide classified as high indicates that the majority (at least 75%) of the HPLC peak of the treated peptide is still present as compared to the HPLC peak of the untreated peptide) | High (A peptide classified as high indicates that the majority (at least 75%) of the HPLC peak of the treated peptide is still present as compared to the HPLC peak of the untreated peptide) |
| 47 (GSAQEPVKGPVSTKPGSCPIILIRCAMLNPPNRCLKDTDCPGIKKCCEGSCGMACFVPQ) [compound 47] | High (A peptide classified as high indicates that the majority (at least 75%) of the HPLC peak of the treated peptide is still present as compared to the HPLC peak of the untreated peptide) | Low (A peptide classified as low indicates that the majority (over 75%) of the HPLC peak of the treated peptide disappeared as compared to the HPLC peak of the untreated peptide) | Low (A peptide classified as low indicates that the majority (over 75%) of the HPLC peak of the treated peptide disappeared as compared to the HPLC peak of the untreated peptide) | Low (A peptide classified as low indicates that the majority (over 75%) of the HPLC peak of the treated peptide disappeared as compared to the HPLC peak of the untreated peptide) | Low (A peptide classified as low indicates that the majority (over 75%) of the HPLC peak of the treated peptide disappeared as compared to the HPLC peak of the untreated peptide) |
| 46 (GSDCKYKFENWGACDGGTGTKVRQGTLKKARYNAQCQETIRVTKPC) [compound 46] | High (A peptide classified as high indicates that the majority (at least 75%) of the HPLC peak of the treated peptide is still present as compared to the HPLC peak of the untreated peptide) | Low (A peptide classified as low indicates that the majority (over 75%) of the HPLC peak of the treated peptide disappeared as compared to the HPLC peak of the untreated peptide) | Low (A peptide classified as low indicates that the majority (over 75%) of the HPLC peak of the treated peptide disappeared as compared to the HPLC peak of the untreated peptide) | Low (A peptide classified as low indicates that the majority (over 75%) of the HPLC peak of the treated peptide disappeared as compared to the HPLC peak of the untreated peptide) | Low (A peptide classified as low indicates that the majority (over 75%) of the HPLC peak of the treated peptide disappeared as compared to the HPLC peak of the untreated peptide) |
| 7 (GSDRDSCIDKSRCSKYGYYQECQDCCKKAGHNGGTCMFFKCKCA) [compound 7] | High (A peptide classified as high indicates that the majority (at least 75%) of the HPLC peak of the treated peptide is still present as compared to the HPLC peak of the untreated peptide) | High (A peptide classified as high indicates that the majority (at least 75%) of the HPLC peak of the treated peptide is still present as compared to the HPLC peak of the untreated peptide) | Low (A peptide classified as low indicates that the majority (over 75%) of the HPLC peak of the treated peptide disappeared as compared to the HPLC peak of the untreated peptide) | Low (A peptide classified as low indicates that the majority (over 75%) of the HPLC peak of the treated peptide disappeared as compared to the HPLC peak of the untreated peptide) | High (A peptide classified as high indicates that the majority (at least 75%) of the HPLC peak of the treated peptide is still present as compared to the HPLC peak of the untreated peptide) |
